Experimental findings from article PMC8157113 are described below.

The assay has as its target Hepatitis B patients' plasma-derived HBsAg particles (HBV surface antigen, subviral particle of HBV). The assay can be described thus: AlphaScreen. To be noted: parent: est. 1.3; read off a plot. For orientation: Bead proximity is the source of the signal in Alpha formats.

With “Myr47 lipopeptide (HBV pre-S1 domain, myristoylated 2–48 peptide), biotinylated Ala11–15”, the response was 1.4 RLU (×10^6).
